T1: Boi1 SH3 (BOI1_YEAST), P38041
T1 chain: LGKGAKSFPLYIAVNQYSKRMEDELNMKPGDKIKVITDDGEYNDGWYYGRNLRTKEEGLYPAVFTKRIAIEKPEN

T2: Boi2 SH3 (BOI2_YEAST), P39969
T2 chain: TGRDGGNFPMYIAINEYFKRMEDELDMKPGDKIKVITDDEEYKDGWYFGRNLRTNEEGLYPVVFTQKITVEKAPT

T3: Myo5 SH3 (MYO5_YEAST), Q04439
T3 chain: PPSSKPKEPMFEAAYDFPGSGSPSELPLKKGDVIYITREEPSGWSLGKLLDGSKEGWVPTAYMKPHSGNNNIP

T4: Rvs167 SH3 (RV167_YEAST), P39743
T4 chain: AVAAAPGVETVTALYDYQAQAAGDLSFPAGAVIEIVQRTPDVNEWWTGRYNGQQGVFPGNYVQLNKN

T5: Yfr024 SH3 (LSB3_YEAST), P43603
T5 chain: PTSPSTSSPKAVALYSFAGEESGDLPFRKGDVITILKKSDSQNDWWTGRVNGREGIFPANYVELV

T6: Yhr016c SH3 (YSC84_YEAST), P32793
T6 chain: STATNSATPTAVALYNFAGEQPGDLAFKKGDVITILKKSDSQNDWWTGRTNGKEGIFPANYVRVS


Key:
Assay in all cases: SPOT array
[1] = target: T1, Boi1 SH3 (BOI1_YEAST), P38041
[2] = target: T2, Boi2 SH3 (BOI2_YEAST), P39969
[3] = target: T3, Myo5 SH3 (MYO5_YEAST), Q04439
[4] = target: T4, Rvs167 SH3 (RV167_YEAST), P39743
[5] = target: Sho1 SH3 (SHO1_YEAST), P40073
Sho1 SH3 (SHO1_YEAST), P40073, sequence (P40073 295-366): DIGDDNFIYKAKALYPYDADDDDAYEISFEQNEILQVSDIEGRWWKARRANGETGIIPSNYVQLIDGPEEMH

[6] = target: T5, Yfr024 SH3 (LSB3_YEAST), P43603
[7] = target: T6, Yhr016c SH3 (YSC84_YEAST), P32793

Binder | normalised SPOT signal, Boehringer light units (BLU); mean over the file's lines of this peptide [1] | normalised SPOT signal, Boehringer light units (BLU); mean over the file's lines of this peptide [2] | normalised SPOT signal, Boehringer light units (BLU); mean over the file's lines of this peptide [3] | normalised SPOT signal, Boehringer light units (BLU); mean over the file's lines of this peptide [4] | normalised SPOT signal, Boehringer light units (BLU); mean over the file's lines of this peptide [5] | normalised SPOT signal, Boehringer light units (BLU); mean over the file's lines of this peptide [6] | normalised SPOT signal, Boehringer light units (BLU); mean over the file's lines of this peptide [7]
SKRMKALPKGPAAL [YER164W 1316-1329] | 1730 | 66.1 | 822 | 204 | 6310 | 1540 | 114
SKNWKLPPRLPHRA [YIR018W 25-38] | 7830 | 29.8 | 5570 | 10200 | 4940 | 39100 | 21900
SIIPRIFPSTPGTI [YGL233W 770-783] | 176 | 22.2 | 369 | 369 | 632 | 448 | 32.6
SEMHRAAPETPRSI [YKL050C 40-53] | 151 | 28.9 | 322 | 207 | 95.5 | 904 | 140
SGSGRRYPQTPSYY [YJL095W 698-711] | 593 | 41.3 | 436 | 137 | 168 | 638 | 226
SILNRSVPKRPTID [YAL017W 1333-1346] | 958 | 8.2 | 133 | 28300 | 96.4 | 39200 | 11900
SKIPKSIPIIPYVL [YLR328W 26-39] | 151 | 25.9 | 243 | 73.2 | 76.7 | 42.7 | 33.4
SDNSKSEPLPPVIT [YFR019W 1795-1808] | 0 | 1.4 | 130 | 54.5 | 23.8 | 21.6 | 32.7
SERRKALPKEPKKL [YIR010W 418-431] | 1170 | 43.6 | 200 | 87.9 | 29500 | 649 | 49.3
SFVTKYLPAAPVGS [YJR019C 24-37] | 27 | 18.9 | 215 | 100 | 2510 | 53.3 | 82.1
SFIRKRAPTPPAPS [YBR108W 721-734] | 3210 | 30.6 | 878 | 250 | 208 | 1500 | 99.6
SENGRLTPGLPRSY [YPR111W 42-55] | 64.5 | 30.7 | 170 | 235 | 35.8 | 240 | 52.2
SETARKVPPIPTQI [YPL249C 247-260] | 73 | 34.5 | 420 | 21500 | 29.9 | 19400 | 8100
SEAKRKFPEAPEVP [YNL121C 455-468] | 66.4 | 7 | 393 | 116 | 3.8 | 18.5 | 19.7
SKIKRSRPPPPPMD [YDR239C 144-157] | 1250 | 35.1 | 5410 | 185 | 167 | 1450 | 123
SILRKSSPEEPFMS [YNR023W 296-309] | 132 | 43 | 144 | 162 | 54.4 | 327 | 22.1

Source: publication PMC314469, “Protein Interaction Networks by Proteome Peptide Scanning” (PLoS Biology, 2004)
